Experimental data published in paper PMC7162537.

Molecular target: BRCA1 (UniProt P38398)
Assay: anti-HA co-IP from nuclear extract, blot
Details: reference: wild type FANCJ; sites S990

Substance: FANCJ (from UniProt Q9BX63) S990A
- binding against the reference: lost
